Among the data in patent US8986655 are EC50 (read off the curve) values, retold here.

In this test the target is prostate-specific membrane antigen (PSMA), dimeric isoform (UniProt Q04609). Put plainly: phage-displayed ELISA on 1 µg/mL PSMA dimer, HRP activity. On the technique in general: ELISA stands for enzyme-linked immunosorbent assay.
Chain of prostate-specific membrane antigen (PSMA), dimeric isoform (Q04609 44-750): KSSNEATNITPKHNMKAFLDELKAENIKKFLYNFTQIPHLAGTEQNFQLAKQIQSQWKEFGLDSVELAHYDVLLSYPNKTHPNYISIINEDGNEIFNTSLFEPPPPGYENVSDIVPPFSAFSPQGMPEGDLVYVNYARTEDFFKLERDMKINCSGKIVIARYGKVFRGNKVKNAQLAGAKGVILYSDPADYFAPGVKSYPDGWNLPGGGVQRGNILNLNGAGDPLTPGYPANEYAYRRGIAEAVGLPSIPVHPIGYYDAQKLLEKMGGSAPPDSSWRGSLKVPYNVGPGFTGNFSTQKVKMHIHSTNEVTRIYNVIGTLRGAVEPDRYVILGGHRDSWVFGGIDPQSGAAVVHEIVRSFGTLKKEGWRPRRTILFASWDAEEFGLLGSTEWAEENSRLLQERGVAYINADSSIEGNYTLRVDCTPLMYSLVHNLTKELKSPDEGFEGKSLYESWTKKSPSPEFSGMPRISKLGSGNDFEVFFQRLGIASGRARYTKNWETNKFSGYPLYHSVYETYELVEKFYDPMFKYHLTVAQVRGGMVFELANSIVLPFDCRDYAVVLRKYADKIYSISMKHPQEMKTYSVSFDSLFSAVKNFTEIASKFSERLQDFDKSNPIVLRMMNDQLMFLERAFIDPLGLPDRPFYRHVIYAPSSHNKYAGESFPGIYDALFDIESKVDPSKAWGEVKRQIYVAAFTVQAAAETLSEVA

Take “phage-displayed peptide 1, CALCEFLG [SEQ ID NO: 1]”: the EC50 (read off the curve) stood at 0.2 nM.

For orientation: EC50 (read off the curve) means the concentration needed to bring the measured effect to its halfway point. High values mean a less potent agent, low ones a more potent agent.
